Assay results from the supplement of paper PMC10724198.
± gives the standard deviation of the averaged measurements.

Columns and labels:
Saccharomyces cerevisiae [1] = assay: protein stability index of tFT-peptide fusion (C-terminal peptide) (PSI (0-1 scale)); higher = more stable (slower turnover)
Procedure: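 MPS profiling in S. cerevisiae of the tFT-X12 degron library: putative degron peptides plus stable controls, 12 aa, fused to the C-terminus of a sfGFP-mCherry timer. Cells are FACS-sorted into 8 mCherry/sfGFP bins and deep-sequenced. PSI runs from 0 (unstable) to 1 (stable). Backgrounds are wild type, das1Δ and doa10Δ at 30 °C, and wild type, das1Δ, cdc34-1 and cdc53-1 at 37 °C; 2-3 technical replicates each.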

Saccharomyces cerevisiae [2] = assay: as above; details: genetic background: wild type; temperature: 30 C
[3] = genetic background: cdc34-1, temperature: 37 C
[4] = genetic background: cdc53-1, temperature: 37 C
[5] = genetic background: das1 deletion, temperature: 30 C
[6] = genetic background: das1 deletion, temperature: 37 C
[7] = genetic background: doa10 deletion, temperature: 30 C
[8] = genetic background: wild type, temperature: 30 C
[9] = genetic background: wild type, temperature: 37 C
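Further: PSI is a weighted mean of sequencing reads over stability bins, variants kept only with over 10 reads, mCherry proximal and sfGFP distal, peptide attached via GGGS linker.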

Row | Sequence | protein stability index (Saccharomyces cerevisiae [1]; [3]) | protein stability index (Saccharomyces cerevisiae [1]; [4]) | protein stability index (Saccharomyces cerevisiae [1]; [5]) | protein stability index (Saccharomyces cerevisiae [1]; [6]) | protein stability index (Saccharomyces cerevisiae [1]; [7]) | protein stability index (Saccharomyces cerevisiae [1]; [8]) | protein stability index (Saccharomyces cerevisiae [1]; [9]) | protein stability index (Saccharomyces cerevisiae [2])
1 | VFRLFFLLVWLV | 0.079 ± 0.016 | 0.0744 ± 0.019 | 0.184 ± 0.023 | 0.25 ± 0.0081 | 0.1663 ± 0.00045 | 0.112 ± 0.026 | 0.13 ± 0.021 | 0.123 ± 0.014
2 | VFRLLALLWRFF | 0.606 ± 0.01 | 0.695 ± 0.018 | 0.62 ± 0.031 | 0.767 ± 0.029 | 0.323 ± 0.037 | 0.31 ± 0.022 | 0.42 ± 0.012 | 0.325 ± 0.056
3 | VFSLAFYLVLFF | 0.326 ± 0.063 | 0.349 ± 0.0065 | 0.346 ± 0.025 | 0.46 ± 0.015 | 0.415 ± 0.011 | 0.319 ± 0.029 | 0.418 ± 0.037 | 0.343 ± 0.056
4 | VFSRVLSVLLSA | 0.493 ± 0.011 | 0.514 ± 0.033 | 0.405 ± 0.029 | 0.5429 ± 0.0039 | 0.2377 ± 0.0015 | 0.282 ± 0.027 | 0.457 ± 0.024 | 0.386 ± 0.0071
5 | VFVGWVLCVVGG | 0.04576 ± 0.00018 | 0.161 ± 0.0032 | 0.143 ± 0.021 | 0.2762 ± 0.00081 | 0.0778 ± 0.03 | 0.132 ± 0.027 | 0.2377 ± 0.002 | 0.218 ± 0.045
6 | VFWLLVAVLRYW | 0.224 ± 0.018 | 0.247 ± 0.0056 | 0.243 ± 0.023 | 0.354 ± 0.0044 | 0.263 ± 0.011 | 0.222 ± 0.016 | 0.325 ± 0.013 | 0.307 ± 0.06
7 | VGVSVVMVVEVP | 0.0286 ± 0.0009 | 0.0328 ± 0.00097 | 0.0504 ± 0.005 | 0.0524 ± 0.0097 | 0.0409 ± 0.011 | 0.042 ± 0.0027 | 0.0384 ± 0.0064 | 0.0948 ± 0.012
8 | VGVVLWWVVLMV | 0.118 ± 0.014 | 0.181 ± 0.0027 | 0.184 ± 0.024 | 0.28 ± 0.0034 | 0.154 ± 0.012 | 0.16 ± 0.029 | 0.251 ± 0.0034 | 0.241 ± 0.017
9 | VGYHCIVGVIFL | 0.467 ± 0.031 | 0.491 ± 0.041 | 0.359 ± 0.036 | 0.545 ± 0.0059 | 0.326 ± 0.012 | 0.372 ± 0.013 | 0.512 ± 0.015 | 0.524 ± 0.081
10 | VIRFNSAPRFLV | 0.614 ± 0.054 | 0.7214 ± 0.0026 | 0.629 ± 0.026 | 0.7443 ± 0.0009 | 0.108 ± 0.031 | 0.125 ± 0.016 | 0.236 ± 0.0043 | 0.213 ± 0.047
11 | VIWIRMISFFVW | 0.192 ± 0.035 | 0.283 ± 0.024 | 0.2 ± 0.043 | 0.35 ± 0.013 | 0.174 ± 0.01 | 0.188 ± 0.034 | 0.346 ± 0.048 | 0.245 ± 0.015
12 | VIYNSALLLVRL | 0.273 ± 0.031 | 0.225 ± 0.01 | 0.249 ± 0.031 | 0.407 ± 0.037 | 0.325 ± 0.014 | 0.25 ± 0.023 | 0.386 ± 0.01 | 0.391 ± 0.041
13 | VLAFFPLFFFLS | 0.434 ± 0.035 | 0.5049 ± 0.0042 | 0.439 ± 0.033 | 0.5732 ± 0.0029 | 0.144 ± 0.013 | 0.126 ± 0.015 | 0.245 ± 0.0039 | 0.2054 ± 0.002
14 | VLGARWHWIYIA | 0.281 ± 0.071 | 0.526 ± 0.0082 | 0.501 ± 0.014 | 0.6636 ± 0.0012 | 0.0782 ± 0.011 | 0.078 ± 0.023 | 0.06742 ± 0.00037 | 0.111 ± 0.024
15 | VLGLYSLLLSFF | 0.567 ± 0.068 | 0.6627 ± 0.0015 | 0.524 ± 0.034 | 0.644 ± 0.016 | 0.277 ± 0.013 | 0.305 ± 0.0096 | 0.4532 ± 0.0012 | 0.337 ± 0.007
16 | VLGRCWWIVSDL | 0.736 ± 0.037 | 0.782 ± 0.011 | 0.661 ± 0.016 | 0.763 ± 0.015 | 0.659 ± 0.025 | 0.67 ± 0.024 | 0.755 ± 0.0049 | 0.566 ± 0.19
17 | VLISLVLLFRCW | 0.23 ± 0.015 | 0.244 ± 0.038 | 0.262 ± 0.023 | 0.386 ± 0.016 | 0.307 ± 0.028 | 0.248 ± 0.03 | 0.332 ± 0.017 | 0.408 ± 0.041
18 | VLLMFFFRFSAL | 0.589 ± 0.053 | 0.717 ± 0.014 | 0.545 ± 0.033 | 0.685 ± 0.02 | 0.483 ± 0.011 | 0.491 ± 0.022 | 0.624 ± 0.013 | 0.523 ± 0.049
19 | VLVFYFCFSFCS | 0.144 ± 0.013 | 0.282 ± 0.043 | 0.126 ± 0.025 | 0.297 ± 0.0048 | 0.11 ± 0.015 | 0.129 ± 0.029 | 0.273 ± 0.016 | 0.205 ± 0.049
20 | VLVLSFLYRMVK | 0.353 ± 0.065 | 0.4364 ± 0.0007 | 0.312 ± 0.054 | 0.507 ± 0.013 | 0.271 ± 0.013 | 0.304 ± 0.017 | 0.436 ± 0.032 | 0.376 ± 0.033
